Measurements taken from patent publication US8688427B2, “Enzyme catalysts for diels-alder reactions” (University of Washington, priority 2008, dated 2014).

Columns and labels:
Type in all cases: biochemical
[1] = Kinetic characterization: reaction velocity versus diene and dienophile concentration
Method: (A) Dependence of reaction velocity on diene concentration for different fixed dienophile concentrations. The diene concentration was varied from 3.0 to 0.18 mM with a fixed concentration of 100 mM (⋄), 66 mM (Δ), 44 mM (⋄), 30 mM (◯), 20 mM (◯), or 13 mM (●) dienophile (B) Dependence of reaction velocity on dienophile concentration for different fixed diene concentrations. The dienophile was varied from 100 to 13.0 mM with a fixed concentration of 3 mM (♦), 2 mM (▴), 1.3 mM (∇), 0.9 mM (Δ), 0.6 mM (⋄), 0.4 mM (□), 0.26 mM (◯), or 0.18 mM (●) […]. Reactions were carried out with 20 μM protein in PBS at 298 K.
The kinetics of the DA—20—10 catalyzed reaction was characterized by measuring the dependence of the reaction velocity on the concentration of both diene and dienophile. The effective molarity (kcat/kuncat) of DA—20—10 is 100 M, and the rate enhancement (kcat/(kuncat*KM_diene)) in the presence of saturating dienophile and limiting diene is 1.0×10^5. At high substrate concentrations DA—20—10 proceeds for more than 30 turnovers before the enzyme loses activity. At higher enzyme concentrations more than 80% of the diene substrate is converted to product.
The errors represent the calculated 95% confidence interval. The parameter a describes the cooperativity of binding between the two substrates: a value greater than one indicates negative cooperativity, whereas a value lower then one indicates positive cooperativity. α could not be determined for DA—20—00. Kinetic parameters for catalytic antibodies 7D4 and 4D5 were taken from (10, 17).

Turnover number = settings: high substrate concentrations: 3 mM diene, 100 mM dienophile, 25 μM enzyme, PBS, 298K
Method: The reaction was carried out in 3 mM diene, 100 mM dienophile, 25 μM enzyme, in PBS at 298K. Turnover number was calculated by subtracting the product formed in the background reaction from the product formed in the enzymatic reaction. This enzyme-produced product was then divided by the protein concentration to determine turnover number.
To quantify the number of turnovers reached before the DA—20—10 was inactivated, a reaction was setup with 25 μM enzyme, 3 mM diene, 100 mM dienophile in a PBS solution and incubated for 160 hours. Time points were taken, quenched, and filtered, and then analyzed using the liquid chromatography mass-spectroscopy assay. A standard curve ranging from 4 mM to 0.03 mM was used to quantify the amount of product produced.

[2] = Stereospecificity, chiral column LC-MSMS
Method: The transition states which lead to the four possible ortho-stereoisomers are shown above the reaction chromatograms. Background reaction: 2 mM diene and 70 mM dieneophile in a PBS solution for 24 hours at 298 K. DA—20—10 reaction: 50 μM protein, 0.5 mM diene, and 10 mM dieneophile in a PBS solution for 48 hours at 298K. The four stereoisomers were separated using liquid chromatography (11), and samples injected onto a Daicel AD-H column.
A liquid chromatography-tandem mass spectroscopy with a chiral column was used to detect each of the four experimentally observed stereoismers. The chiral column used in this work was the same as in (10), so it was predicted that the product peaks would come out in the same order. To validate that the endo and exo products came out as expected each was synthesized, and run either separately or together to identify the endo and exo peaks. The peaks observed come out in the same order and same time as reported in Cannizzaro et al. (10).
In order to quantify the stereospecificity of DA—20—10, a reaction with 2 mM diene, 70 mM dieneophile, PBS, pH 7.4, in the presence or absence of 80 μM protein was run for 24 hr at 298K. […] The reactions were shaken for 5 minutes, centrifuged for 5 minutes, after which the organic layer was removed and analyzed with a LC-MSMS assay. […]

B1: DA_20_10: DA_20_04 with A272N, Q149R, A173C (protein)
chain: MEIPVIEPLFTKVTEDIPGATGPVFDKNGDFYIVAPYVEVNGKPAGEILRIDLKTGKKTVICKPEVNGYGGIPIGCQCDRDANQLFVADMRLGLLVVQTDGTFEEIAKKDSEGRRMQGCAYCAFDYEGNLWITAPAGEVAPADFTISLREKFGSIYCFTTDGQMIQVDTAFQCPAGIAVRHMNDGRPYQLIVAEQPTKKLWSYDIKGPAKIENKKVWGHIPGTHKGGAAGMDFDEDNNLLVANWGSSHIEVFGPDGGQPKMRIRCPFEKPANLHFKPQTKTIFVTEHENNAVWKFEWQRNGKKQYCETLKFGIFGSLEHHHHHH
modifications: Enzyme catalyst for Diels-Alder reaction
notes: DA_20_04 with A272N, Q149R, A173C
increase in overall catalytic efficiency over the original design model DA_20_00 [1]: roughly 2200 fold | kcat relative to those of 7D4 and 4D5 ([1]; DA_20_10 at 298K, antibodies at 310K): 10 fold | rate enhancement (kcat/(kuncat*KM_diene)) relative to either antibody ([1]; saturating dienophile and limiting diene, versus 7D4 and 4D5): 20 fold | effective molarity (kcat/kuncat) relative to either antibody ([1]; versus 7D4 and 4D5): 20 fold | turnovers before the enzyme loses activity (Turnover number): more than 30 turnovers | share of the expected 3R,4S product [2]: > 97% | stereospecificity ([2]; 2 mM diene, 70 mM dienophile, PBS, pH 7.4, 80 μM protein, 24 hr, 298K): greater than 97 % ee
